Measurements as given in patent US20230057602A1, “METHODS OF TREATMENT WITH ANTIBODIES AGAINST BCMA AND CD3” (BRISTOL-MYERS SQUIBB COMPANY, priority 2019, published 2023).

Legend:
[1] = Subcutaneous versus intravenous bioavailability (data not shown); format: in vivo
Procedure: In some embodiments of any aspect of the invention, the multispecific (e.g. bispecific) antibody is administered intravenously or subcutaneously.

[2] = system: H929 BCMA-expressing myeloma cell line; assay: CC-93269-induced redirected lysis of H929; format: cell-based, human; settings: E:T 1:1, 72 hours, 3 donors
Procedure: (§1) Four BCMA-expressing tumour cell lines purchased from ATCC (Manassa, Va.) (Multiple Myeloma cell lines: BCMA high-H-929 (catalog number CRL-9068), BCMA mid-SKMM2 and -MM.1S (catalog number ACC-430) and BCMA low-KMS12-PE (catalog number ACC-606)) were co-cultured with T-cells from 3 independent healthy donors (Bloodworks Northwest, Seattle, Wash.), at a E:T ratio of 1:1, i.e. 1 T cell: 1 myeloma cell. […]; 0.033-2.6 nM) for 72 hours.
(§2) FIG. 7 illustrates CC-93269-induced redirected lysis of BCMA+ tumour cell lines following co-culture with donor T cells from one healthy donor; results from all 3 independent healthy donors are summarised in Table 19. In 96-well round bottom plates and a final volume of 100 μL, 1×10^4 CellTrace Violet-labeled T-cells were plated with 1×10^4 CellTrace CFSE-labeled target cells, in the presence of varying concentrations of CC-93269 in combination with varying concentrations of dexamethasone (7-point dose response). The cocultures were incubated at 37° C. with 5% CO2. […] One-hundred percent viability was determined by the absolute cell count of live tumour cells at no addition of CC-93269 or dexamethasone; an absolute cell count of 0 live cells was used to define 100% killing of tumour cells. […] The IC50 values were calculated using non-linear regression analysis, sigmoidal dose-response using GraphPad Prism (version 5.0) software.

[3] = system: Relapsed/Refractory Multiple Myeloma (RRMM) patients; assay: Clinical study of CC-93269 in RRMM: safety, cytokine release syndrome (CRS); format: in vivo, human
Procedure: CC-93269 (42-TCBcv), a bispecific antibody that specifically binds to BCMA bivalently and CD3 monovalently, was administered intravenously over 2 hours on Days 1, 8, 15, and 22 for Cycles 1-3; Days 1 and 15 for Cycles 4-6; and on Day 1 for Cycle 7 and beyond, all in 28-day cycles. […] 5 patients received a starting dose of 6 mg on Cycle 1 Day 1, followed by a dose of 10 mg on Cycle 1 Day 8 and thereafter (Cohort 7, n=5).
CRS prophylaxis was implemented with dexamethasone (up to 20 mg intravenous or equivalent) for the first dose and dose increases in patients receiving ≥6 mg. In Cohorts 1-4, dexamethasone was not used as a premedication.
Patients were monitored for clinical signs and symptoms associated with CRS (Lee, 2014) and CRS events were graded and treated according to the common CTCAE CRS grading scale (Lee, 2015).
CC-93269 was administered intravenously over 2 hours on Days 1, 8, 15, and 22 for Cycles 1-3; Days 1 and 15 for Cycles 4-6; and on Day 1 for Cycle 7 and beyond, all in 28-day cycles. Patients received a starting dose of 3 mg on Cycle 1 Day 1, followed by a dose of 6 mg on Cycle 1 Day 8 and thereafter.
Cohorts 8 (n=6) and 9 (n=5) differ in baseline multiple myeloma tumor burden based on percentage of bone marrow plasma cells and/or the presence of extramedullary disease (Cohort 8 including subjects with ≤50% bone marrow plasma cells [biopsy or aspirate] and ≤5 extramedullary lesions and Cohort 9 including subjects with >50% bone marrow plasma cells or >5 extramedullary lesions). Patients with lower (Cohort 8) and higher (Cohort 9) tumour burden were enrolled to evaluate possible differences in tolerability based on the rationale that the only patient of Cohorts 1-7 to experience Grade ≥3 CRS had extensive extramedullary disease at enrolment.
In Cohorts 8 and 9, all patients received dexamethasone (up to 20 mg intravenous or equivalent) as prophylaxis for CRS prior to the first dose, the second dose, any dose increase, and after dose interruption of more than 2 weeks occurring during Cycles 1 to 6. Patients were monitored, graded, and treated for CRS in the same way as for Cohorts 1-7 in Example 1.

[4] = system: KMS12-PE BCMA-expressing myeloma cell line; assay: CC-93269-induced redirected lysis of KMS12-PE; format: cell-based, human; settings: E:T 1:1, 72 hours, 3 donors
Procedure: as §1, §2

[5] = Clinical study of CC-93269 in RRMM: pharmacokinetics (exposure); format: in vivo, human
Procedure: CC-93269 (42-TCBcv), a bispecific antibody that specifically binds to BCMA bivalently and CD3 monovalently, was administered intravenously over 2 hours on Days 1, 8, 15, and 22 for Cycles 1-3; Days 1 and 15 for Cycles 4-6; and on Day 1 for Cycle 7 and beyond, all in 28-day cycles. 14 patients received a fixed dose of CC-93269 at each of the intervals: 0.15 mg (Cohort 1, n=1), 0.5 mg (Cohort 2, n=1), 1.5 mg (Cohort 3, n=1), 3 mg (Cohort 4, n=4), 6 mg (Cohort 5, n=3) or 10 mg (Cohort 6, n=4). 5 patients received a starting dose of 6 mg on Cycle 1 Day 1, followed by a dose of 10 mg on Cycle 1 Day 8 and thereafter (Cohort 7, n=5).
This phenomenon was not observed at 3 mg doses.

## CC-93269: bispecific antibody that specifically binds to BCMA bivalently and CD3 monovalently; SEQ ID NO:48, 55, 56, 57 (2×)
[1]
  bioavailability of subcutaneous administration: comparable bioavailability to intravenous administration
[2]; 1 μM Dex co-treatment
  % live tumour cells, Mean: 2.11%
[2]; DMSO
  % live tumour cells, Mean: 1.61%
[3]; 11 patients, 3/6 mg dose regimen (Cohorts 8 and 9)
  patients who experienced CRS: 54.5%
[3]; 11 subjects receiving 3/6 mg
  subjects with Grade 2 or higher CRS events: 18.2%
[3]; 12 subjects, 6 mg, 6/10 mg, or 10 mg doses
  subjects with Grade 2 or higher CRS events: 50%
[3]; 12 subjects, 6 mg, 6/10 mg, or 10 mg doses (Cohorts 5 to 7)
  subjects who experienced CRS: 100%
[3]; Cohort 6, consecutive doses of 6 mg, all CRS events in Cycle 1
  CRS, maximum Grade: 2
[3]; Cohort 9 compared with Cohort 8
  CRS frequency or severity, higher versus lower tumor burden: no increase observed
[3]; Cohorts 8 and 9
  Grade 3 or higher CRS events: no Grade 3 or higher CRS events were reported
  severity of CRS in comparison with Cohorts 5 to 7: generally decreased
[3]; Cohorts 8 and 9, 8 events
  CRS events of Grade 1: 75%
  CRS events of Grade 2: 25%
[3]; Cohorts 8 and 9, tocilizumab and/or dexamethasone
  outcome of CRS events: resolved with standard treatments
[3]; One patient, 6 mg first dose and 10 mg on Cycle 1 Day 8 (Cohort 7)
  death on study: died on the study in the setting of CRS
[3]; all cohorts 1 to 9
  CRS events lasting more than 3 days: 4 of 36
  CRS events occurring with the first dose on C1D1: 73.3%
  CRS events occurring with the second dose on C1D8: 23.3%
  duration of a CRS event, range: 1 to 7 days
  maximum time to first onset of CRS: 3 days
  median duration of a CRS event: 2 days
  median time to first onset of CRS: 1 days
[3]; all cohorts 1 to 9, limited to Grade ≤2 events
  CRS events occurring with subsequent doses: 2.7%
[3]; consecutive doses of ≤3 mg, no CRS prophylactic
  tolerability: well-tolerated
[3]; fixed dose of ≤3 mg
  Cytokine release syndrome, maximum Grade: 1
[3]; one patient of Cohort 7, Cycle 1 Day 1, 6 mg
  CRS Grade after the first dose: 3
[3]; same patient of Cohort 7, Cycle 1 Day 8, 10 mg
  CRS Grade after the second dose: 5
[4]; 1 μM Dex co-treatment
  % live tumour cells, Mean: 5.8%
[4]; DMSO
  % live tumour cells, Mean: 3.71%
[5]; 3 mg doses
  large increases in exposure after multiple doses: not observed
[5]; doses ≥6 mg
  exposure after multiple doses: large increases in exposure
